Results as given in PMC7467671.

Columns and labels:
Assay in all cases: potentiometry
[1] = target: Asp1 (position 1, -----DEHGTA); conditions: 298 K; 0.1 M NaClO4; none (4 mM HClO4, titrated with 0.1 M carbonate-free NaOH); metal-free peptide, largely unstructured
[2] = target: Glu2 (position 2, ----DEHGTAV); conditions: 298 K, 0.1 M NaClO4
[3] = target: His3 (position 3, ---DEHGTAVM); conditions: 298 K, 0.1 M NaClO4
[4] = target: Lys10 (position 10, TAVMLK-----); conditions: 298 K, 0.1 M NaClO4
[5] = target: Nterm1 (position 1, -----DEHGTA); conditions: 298 K, 0.1 M NaClO4
[6] = target: Asp10 (position 10, LAKGED-----); conditions: 298 K; 0.1 M NaClO4; none (4 mM HClO4, titrated with 0.1 M carbonate-free NaOH); metal-free peptide, largely unstructured
[7] = target: Glu9 (position 9, VLAKGED----); conditions: 298 K, 0.1 M NaClO4
[8] = target: His2 (position 2, ----THMVLAK); conditions: 298 K, 0.1 M NaClO4
[9] = target: Lys7 (position 7, HMVLAKGED--); conditions: 298 K, 0.1 M NaClO4
[10] = target: Nterm1 (position 1, -----THMVLA); conditions: 298 K, 0.1 M NaClO4
[11] = target: Asp8 (position 8, AVMLKDEH---); conditions: 298 K; 0.1 M NaClO4; none (4 mM HClO4, titrated with 0.1 M carbonate-free NaOH); metal-free peptide, largely unstructured
[12] = target: Glu9 (position 9, VMLKDEH----); conditions: 298 K; 0.1 M NaClO4; none (4 mM HClO4, titrated with 0.1 M carbonate-free NaOH); metal-free peptide, largely unstructured
[13] = target: His10 (position 10, MLKDEH-----); conditions: 298 K, 0.1 M NaClO4
Lys7 (position 7, …--) = conditions: 298 K, 0.1 M NaClO4
[14] = target: Nterm1 (position 1, -----GTAVML); conditions: 298 K, 0.1 M NaClO4
Asp5 (position 5, -…) = conditions: 298 K; 0.1 M NaClO4; none (4 mM HClO4, titrated with 0.1 M carbonate-free NaOH); metal-free peptide, largely unstructured
Glu6 (position 6, …-) = conditions: 298 K; 0.1 M NaClO4; none (4 mM HClO4, titrated with 0.1 M carbonate-free NaOH); metal-free peptide, largely unstructured
His7 (position 7, …--) = conditions: 298 K, 0.1 M NaClO4
[15] = target: Lys9 (position 9, LDEHAKG----); conditions: 298 K, 0.1 M NaClO4
[16] = target: Nterm1 (position 1, -----TMVLDE); conditions: 298 K, 0.1 M NaClO4
[17] = target: Asp1 (position 1, -----DEHGGG); conditions: 298 K; 0.1 M NaClO4; none (4 mM HClO4, titrated with 0.1 M carbonate-free NaOH); metal-free peptide, largely unstructured
[18] = target: Asp8 (position 8, HGGGGDEH---); conditions: 298 K; 0.1 M NaClO4; none (4 mM HClO4, titrated with 0.1 M carbonate-free NaOH); metal-free peptide, largely unstructured
[19] = target: Glu2 (position 2, ----DEHGGGG); conditions: 298 K; 0.1 M NaClO4; none (4 mM HClO4, titrated with 0.1 M carbonate-free NaOH); metal-free peptide, largely unstructured
[20] = target: Glu9 (position 9, GGGGDEH----); conditions: 298 K; 0.1 M NaClO4; none (4 mM HClO4, titrated with 0.1 M carbonate-free NaOH); metal-free peptide, largely unstructured
[21] = target: His10 (position 10, GGGDEH-----); conditions: 298 K, 0.1 M NaClO4
[22] = target: His3 (position 3, ---DEHGGGGD); conditions: 298 K, 0.1 M NaClO4
[23] = target: Nterm1 (position 1, -----DEHGGG); conditions: 298 K, 0.1 M NaClO4
[24] = none (4 mM HClO4, titrated with 0.1 M carbonate-free NaOH), metal-free peptide, largely unstructured
[25] = none (4 mM HClO4, titrated with NaOH), Cu(II)-bound, Cu(II):peptide 1:1.1, [Cu(II)]tot = 1 mM
[26] = none (4 mM HClO4, titrated with NaOH), Mn(II)-bound, Mn(II):peptide 1:1.1, [Mn(II)]tot = 0.5 mM

B1: DP1 decapeptide (DEHGTAVMLK) (synthetic construct (designed from amino-acid content of Deinococcus radiodurans cell-free extract)) (peptide)
chain: DEHGTAVMLK
- pKa [1]: 3.06
- pKa [2, 24]: 4.20
- pKa [2, 25]: 4.17
- pKa [3, 24]: 6.47
- pKa [3, 26]: 6.11
- pKa [4, 24]: 9.62(3)
- pKa [4, 25]: 9.00
- pKa [4, 26]: 8.96
- pKa [5, 24]: 7.85
- pKa [5, 26]: 7.5

B2: DP2 decapeptide (THMVLAKGED) (synthetic construct (scrambled DP1; Deinococcus radiodurans-inspired)) (peptide)
chain: THMVLAKGED
- pKa [6]: 3.89
- pKa [7, 24]: 4.70
- pKa [7, 25]: 4.91
- pKa [8, 24]: 5.91
- pKa [8, 26]: 5.40
- pKa [9, 24]: 9.86(1)
- pKa [9, 25]: 9.87
- pKa [9, 26]: 8.29
- pKa [10, 24]: 7.01
- pKa [10, 26]: 6.59

B3: Term-DEH decapeptide (GTAVMLKDEH) (synthetic construct (Deinococcus radiodurans-inspired)) (peptide)
chain: GTAVMLKDEH
- pKa [11]: 3.46
- pKa [12]: 4.31
- pKa [13, 24]: 7.02
- pKa [13, 26]: 7.08
- pKa (Lys7 (position 7, …--); [24]): 10.82(1)
- pKa (Lys7 (position 7, …--); [25]): 11.05
- pKa [14, 24]: 8.16
- pKa [14, 25]: 5.34
- pKa [14, 26]: 7.79

B4: Mid-DEH decapeptide (TMVLDEHAKG) (synthetic construct (Deinococcus radiodurans-inspired)) (peptide)
chain: TMVLDEHAKG
- pKa (Asp5 (position 5, -…)): 3.55
- pKa (Glu6 (position 6, …-)): 4.06
- pKa (His7 (position 7, …--); [24]): 6.29
- pKa (His7 (position 7, …--); [26]): 6.42
- pKa [15, 24]: 10.52(1)
- pKa [15, 25]: 11.20
- pKa [15, 26]: 9.8
- pKa [16, 24]: 7.33
- pKa [16, 25]: 4.59
- pKa [16, 26]: 7.21

B5: Bis-DEH decapeptide (DEHGGGGDEH) (synthetic construct (Deinococcus radiodurans-inspired)) (peptide)
chain: DEHGGGGDEH
- pKa [17]: 2.67
- pKa [18]: 3.36
- pKa [19]: 4.05
- pKa [20]: 4.69
- pKa [21, 24]: 7.41
- pKa [21, 25]: 7.73
- pKa [21, 26]: 6.37
- pKa [22, 24]: 6.67
- pKa [22, 26]: 7.25
- pKa [23, 24]: 8.41
- pKa [23, 26]: 7.82
